Results reported in patent US20150344570A1 (published 2015).

What was measured:
[1] = target: T1, FcγRIIa H (FcγRIIa, allotype with His at position 131), extracellular domain with C-terminal His tag (human, UniProt P12318 34-217); test: SPR (Biacore); He/Con_2aH divided by He/Con_2b (FcγRIIb)
T1 construct: extracellular domain; also called FcgRIIa H; 2aH; not shown: His tag at the C terminus
T1 sequence (looked up): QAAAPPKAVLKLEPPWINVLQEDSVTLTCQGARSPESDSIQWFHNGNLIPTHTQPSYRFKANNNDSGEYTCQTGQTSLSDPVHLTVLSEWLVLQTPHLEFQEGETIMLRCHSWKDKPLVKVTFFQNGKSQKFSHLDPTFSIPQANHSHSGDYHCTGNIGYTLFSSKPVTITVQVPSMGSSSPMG

[2] = target: T1, FcγRIIa H (FcγRIIa, allotype with His …); test: SPR (Biacore), relative binding vs GpH7-A5/GpH7-B3/GpL16-k0
[3] = target: T2, FcγRIIb, extracellular domain with C-terminal His tag (human, UniProt P31994 43-217); test: as above
T2 construct: extracellular domain; also called FcgRIIb; 2b; not shown: His tag at the C terminus
T2 sequence (looked up): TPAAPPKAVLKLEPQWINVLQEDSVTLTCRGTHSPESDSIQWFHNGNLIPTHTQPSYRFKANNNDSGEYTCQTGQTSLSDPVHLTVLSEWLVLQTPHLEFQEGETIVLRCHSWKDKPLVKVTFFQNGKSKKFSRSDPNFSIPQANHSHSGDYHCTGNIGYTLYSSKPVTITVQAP

[4] = target: T3, FcγRIa extracellular domain with C-terminal His tag (human, UniProt P12314 16-292); test: ratio He/Con_1a : He/Con_2b (FcγRIa over FcγRIIb), SPR (Biacore)
T3 construct: extracellular domain; Soluble receptor used as analyte in Biacore; also called FcgRI

[5] = target: T3, FcγRIa extracellular domain with …; test: SPR (Biacore), antibody captured, FcγR as analyte; binding relative to GpH7-A5/GpH7-B3/GpL16-k0 = 100
[6] = target: T4, FcγRIIb extracellular domain with C-terminal His tag (human, UniProt P31994 43-217); test: as above
T4 construct: extracellular domain; Soluble receptor used as analyte in Biacore; also called FcgRIIb
T4 sequence (looked up): T2 sequence (looked up)

T3 sequence (P12314 16-292): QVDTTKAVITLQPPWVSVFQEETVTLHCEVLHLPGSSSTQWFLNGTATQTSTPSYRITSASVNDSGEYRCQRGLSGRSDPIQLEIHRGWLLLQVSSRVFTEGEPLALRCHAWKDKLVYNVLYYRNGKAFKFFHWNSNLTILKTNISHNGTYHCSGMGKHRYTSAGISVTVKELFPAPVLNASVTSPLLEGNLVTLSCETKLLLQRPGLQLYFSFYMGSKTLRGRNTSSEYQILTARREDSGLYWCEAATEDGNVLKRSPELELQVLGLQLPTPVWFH

B1: GpH7-A5/GpH7-B3 variant K326_20W/GpL16-k0 (antibody, human IgG1, kappa)
heavy 1: not shown
heavy 2: not shown
light: DIVMTQSPLSLPVTPGEPASISCQASESLVHSNRNTYLHWYLQKPGQSPQLLIYKVSNRFSGVPDRFSGSGSGTDFTLKISRVEAEDVGVYYCSQNTHVPPTFGQGTKVEIERTVAAPSVFIFPPSDEQLKSGTASVVCLLNNFYPREAKVQWKVDNALQSGNSQESVTEQDSKDSTYSLSSTLTLSKADYEKHKVYACEVTHQGLSSPVTKSFNRGEC
notes: Heterodimerized anti-glypican-3 IgG1; mutation in one H chain only; also called He Ab
Question: Which results are given for B1?
Answer: He_2aH/2b (IIaH/IIb) [1]: 0.56 ratio; He/Con_2aH [2]: 83.3 % of HeCon Ab (=100); He/Con_2b [3]: 148 % of HeCon Ab (=100)

B2: GpH7-A5/GpH7-B3 variant L328_15Y/GpL16-k0 (antibody, human IgG1, kappa)
heavy 1: not shown
heavy 2: not shown
light: B1 light
notes: Heterodimerized IgG1, mutation in the GpH7-B3 chain only; also called He Ab
Question: Which “He_1a/2b (Ia/IIb)” value [4] does the source give for B2 here?
Answer: 0.53

Question: And the He/Con_1a [5]?
Answer: 102 control = 100

Question: What about the He/Con_2b [6] of the same binder?
Answer: 193 control = 100

B3: GpH7-A5/GpH7-B3 variant N325_13S/GpL16-k0 (antibody, human IgG1, kappa)
heavy 1: not shown
heavy 2: not shown
light: B1 light
notes: as for B2
Question: B3 was tested. Which “He_1a/2b (Ia/IIb)” value [4] did it give?
Answer: 0.55

Question: What about the He/Con_1a [5] of the same binder?
Answer: 96.8 control = 100

Question: What about the He/Con_2b [6] of the same binder?
Answer: 177 control = 100

B4: GpH7-A5/GpH7-B3 variant K326_10E/GpL16-k0 (antibody, human IgG1, kappa)
heavy 1: not shown
heavy 2: not shown
light: B1 light
notes: as for B1
Question: What does the source list for B4?
Answer: He_2aH/2b (IIaH/IIb) [1]: 0.51 ratio; He/Con_2aH [2]: 102 % of HeCon Ab (=100); He/Con_2b [3]: 200 % of HeCon Ab (=100)

B5: GpH7-A5/GpH7-B3 variant N325_06M/GpL16-k0 (antibody, human IgG1, kappa)
heavy 1: not shown
heavy 2: not shown
light: B1 light
notes: as for B2
Question: How did the “He_1a/2b (Ia/IIb)” value [4] turn out when B5 was run?
Answer: 0.45

Question: What about the He/Con_1a [5] of the same binder?
Answer: 97.6 control = 100

Question: What about the He/Con_2b [6] of the same binder?
Answer: 217 control = 100

B6: GpH7-A5/GpH7-B3 variant L328_14T/GpL16-k0 (antibody, human IgG1, kappa)
heavy 1: not shown
heavy 2: not shown
light: B1 light
notes: as for B2
Question: What does the source list for B6?
Answer: He_1a/2b (Ia/IIb) [4]: 0.71; He/Con_1a [5]: 100 control = 100; He/Con_2b [6]: 141 control = 100

B7: GpH7-A5/GpH7-B3 variant L328_04F/GpL16-k0 (antibody, human IgG1, kappa)
heavy 1: not shown
heavy 2: not shown
light: B1 light
notes: as for B2
Question: With B7 as the binder, how does the “He_1a/2b (Ia/IIb)” value [4] read?
Answer: 0.45

Question: What about the He/Con_1a [5] of the same binder?
Answer: 97.9 control = 100

Question: And the He/Con_2b [6]?
Answer: 219 control = 100

B8: GpH7-A5/GpH7-B3 variant L328_10E/GpL16-k0 (antibody, human IgG1, kappa)
heavy 1: not shown
heavy 2: not shown
light: B1 light
notes: as for B2
Question: Which results are given for B8?
Answer: He_1a/2b (Ia/IIb) [4]: 0.59; He/Con_1a [5]: 101 control = 100; He/Con_2b [6]: 172 control = 100

B9: GpH7-A5/GpH7-B3 variant N325_02A/GpL16-k0 (antibody, human IgG1, kappa)
heavy 1: not shown
heavy 2: not shown
light: B1 light
notes: as for B1
Question: Which results are given for B9?
Answer: He_2aH/2b (IIaH/IIb) [1]: 0.74 ratio; He/Con_2aH [2]: 47.6 % of HeCon Ab (=100); He/Con_2b [3]: 64.4 % of HeCon Ab (=100)

B10: GpH7-A5/GpH7-B3 variant K326_15Y/GpL16-k0 (antibody, human IgG1, kappa)
heavy 1: not shown
heavy 2: not shown
light: B1 light
notes: as for B1
Question: With B10 as the binder, how does the “He_2aH/2b (IIaH/IIb)” value [1] read?
Answer: 0.62 ratio

Question: What about the He/Con_2aH [2] of the same binder?
Answer: 98.3 % of HeCon Ab (=100)

Question: And the He/Con_2b [3]?
Answer: 159 % of HeCon Ab (=100)

B11: GpH7-A5/GpH7-B3 variant K326_04F/GpL16-k0 (antibody, human IgG1, kappa)
heavy 1: not shown
heavy 2: not shown
light: B1 light
notes: as for B1
Question: B11 was tested. Which “He_2aH/2b (IIaH/IIb)” value [1] did it give?
Answer: 0.63 ratio

Question: And the He/Con_2aH [2]?
Answer: 97 % of HeCon Ab (=100)

Question: What about the He/Con_2b [3] of the same binder?
Answer: 155 % of HeCon Ab (=100)

B12: GpH7-A5/GpH7-B3 variant L328_20W/GpL16-k0 (antibody, human IgG1, kappa)
heavy 1: not shown
heavy 2: not shown
light: B1 light
notes: as for B2
Question: Which results are given for B12?
Answer: He_1a/2b (Ia/IIb) [4]: 0.44; He/Con_1a [5]: 103 control = 100; He/Con_2b [6]: 235 control = 100

B13: GpH7-A5/GpH7-B3 variant P331_03V/GpL16-k0 (antibody, human IgG1, kappa)
heavy 1: not shown
heavy 2: not shown
light: B1 light
notes: as for B2
Question: Which results are given for B13?
Answer: He_1a/2b (Ia/IIb) [4]: 0.78; He/Con_1a [5]: 92 control = 100; He/Con_2b [6]: 119 control = 100

B14: GpH7-A5/GpH7-B3 variant K326_09D/GpL16-k0 (antibody, human IgG1, kappa)
heavy 1: not shown
heavy 2: not shown
light: B1 light
notes: as for B1
Question: Which results are given for B14?
Answer: He_2aH/2b (IIaH/IIb) [1]: 0.57 ratio; He/Con_2aH [2]: 110 % of HeCon Ab (=100); He/Con_2b [3]: 193 % of HeCon Ab (=100)

B15: GpH7-A5/GpH7-B3 variant N325_03V/GpL16-k0 (antibody, human IgG1, kappa)
heavy 1: not shown
heavy 2: not shown
light: B1 light
notes: as for B1
Question: What does the source list for B15?
Answer: He_2aH/2b (IIaH/IIb) [1]: 0.41 ratio; He/Con_2aH [2]: 45.2 % of HeCon Ab (=100); He/Con_2b [3]: 111 % of HeCon Ab (=100)

B16: GpH7-A5/GpH7-B3 variant K326_05P/GpL16-k0 (antibody, human IgG1, kappa)
heavy 1: not shown
heavy 2: not shown
light: B1 light
notes: as for B1
Question: B16 was tested. Which “He_2aH/2b (IIaH/IIb)” value [1] did it give?
Answer: 0.79 ratio

Question: What about the He/Con_2aH [2] of the same binder?
Answer: 98.8 % of HeCon Ab (=100)

Question: And the He/Con_2b [3]?
Answer: 126 % of HeCon Ab (=100)
